Experiment: yeast display, Sf9 membrane polyspecificity reagent, FACS + sequencing; frameworks hold sequencing errors
Outline: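 Nanobodies from a synthetic yeast display library (Saccharomyces cerevisiae BJ5465), induced 36–48 hours with galactose, were stained 1 hour at 4 °C with 10% biotinylated, detergent-solubilized Sf9 membrane reagent, enriched on streptavidin microbeads, then FACS-sorted. Anti-HA (expression) and streptavidin (reagent binding) fluorescence set low and high (top ~1%) gates. Polyreactivity labels come from the gate of origin. Genes were colony-PCR amplified, MiSeq 2 × 250 sequenced and filtered by CDR length.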

Sequence	polyreactivity (PSR sort gate)
QVQLVESGGGLVQAGGSLRLSCAASGRTFVYYAMGWYRQAPGKERELVAAITWSGGRTYYADSVKGRFTISRDNAKNTVYLQMNSLKPEDTAVYYCNRDQWPWESGYAYNYWGQGTQVTVSS	low polyreactivity
QVQLVESGGGLVQAGGSLRLSCAASGRTFVYYAMGWYRQAPGTERELVAAITFSGGYTYYADSVKGRFTISRDNAKNTVYLQMNSLKPEDTAVYYCAAQYRYSYPLGDYWGQGTQVTVSS	low polyreactivity
QVQLVESGGGLVQAGGSLRLSCAASGRTFVYYAMGWYSQAPGKERELVAAISSSGGSTSYADSVNGRFTISRDNAKNTVYLQMNSVKPEDTAVYYCAADVSVSGYYYWGQGTQVTVSS	high polyreactivity
QVQLVESGGGLVQAGGSLRLSCAASGRTFVYYAMVWYRQAPGKERELVATISRRGGGTYYADSVKGRFTISRDNAKNTVYLQMNSLKPEDTAVYYCNAKWTSHGTYAEDYWGQGTQVTVSS	high polyreactivity
QVQLVESGGGLVQAGGSLRLSCAASGRTFVYYDMGWYRQAPGKERELVASINWSGGSTYYADSVKGRFTISRDNAKNTVYLQMNSLKPEDTAVYYCAKEEITEWGVDSWGQGTQVTVSS	low polyreactivity
QVQLVESGGGLVQAGGSLRLSCAASGRTFVYYDMGWYRQAPGKERELVASISSGDSTNYADSVKGRFTISRDNAKNTFYLQMNSLKPEDTAVYYCAAQYSWGHYYTFDYWGLGTQVTVSS	low polyreactivity
QVQLVESGGGLVQAGGSLRLSCAASGRTFWDNAMGWYRQAPAKERELVAAITFRGGTTYYADSVKGRFTISRDNAKNTVYIQMNSLKPEDTAVYYCAARNGLYRLYYYWGQGTQVTVSS	high polyreactivity
QVQLVESGGGLVQAGGSLRLSCAASGRTFWEHAMGWYRQAPGKERELVAAISGDSGSTYYADSVKGRFTISRDNANNSVYLQMNSLKPEDTAVYYCAGDSDRDDSYPYYYWGQGTQVTVSS	low polyreactivity
QVQLVESGGGLVQAGGSLRLSCAASGRTFWFYAMGWYRQAPGKERELVASITSGGGTNYADSVKGRFTISRDNAKNTVYLQMNRLKPEDTAVYYCAAARKLDATTYYKFDYWGQVTQVTVSS	high polyreactivity
QVQLVESGGGLVQAGGSLRLSCAASGRTFWGNAMGWYRQAPGKEREFVAGITQSDGSTYYADSVKGRFTISRDNAKNTVYLQMNSLKPEDTAVYYCAATPYSTQGLRPKFDYWGQGTQVTVSS	low polyreactivity
QVQLVESGGGLVQAGGSLRLSCAASGRTFWGYALGWYRQAPGKERELVAAISSGGETTYADSVKGRFTISRDNAKNTVYLQMNSMKPEDTAVYYCAADRWITVYILGADGYDYWGQGTQVTVSS	low polyreactivity
QVQLVESGGGLVQAGGSLRLSCAASGRTFWGYAMGWYRQAPGKERELVAAISWSGTSTYYADSVKGRFTISRDNAKNTVYLQMNSLKPEDTAVYYCARAVNDWRRKYNYWGQGTQVTVSS	high polyreactivity
QVQLVESGGGLVQAGGSLRLSCAASGRTFWKYVMGWYRQAPGKERELVAVISRPAGSTYYADSVKGRFTISRDNAKNSVYLQMNSLKPEDTAVYYCAKRPKNKPVLGDYDHWGQGTQVTVSS	low polyreactivity
QVQLVESGGGLVQAGGSLRLSCAASGRTFWRNAMGWYRQAPGKERELVAAINSGGRTYYADSVKGRFTISRDNAKNTVYLQMNSLKPEDTAVYYCAAVYSQSTKRYELYYWGQGTQVTVSS	high polyreactivity
QVQLVESGGGLVQAGGSLRLSCAASGRTFWRYAMGWYRQAPGKERELVAAITSGGGSTYYADSVKGRFTISRDNAKNTVSLQMNSLKPEDTAVYYCNRAGRGRSFKGDYWGQGTQVTVSS	high polyreactivity
QVQLVESGGGLVQAGGSLRLSCAASGRTFWRYAMGWYRQAPGKEREVVAAISRRGDSTYYADSVKGRFTISRDYAKNTVYLQMNSLKPEDTAVYYCNKGYAYSHDDPYWYSPRYDYWGQGTQVTVSS	low polyreactivity
QVQLVESGGGLVQAGGSLRLSCAASGRTFWRYAMGWYRQAPWKERELVARISWRGGSTNYADSVKGRFTISRDNAKNTVYLQMNSLKPEDTAVYYFNAEVLNYLVFGYQLGYDYWGQGTQVTVSS	low polyreactivity
QVQLVESGGGLVQAGGSLRLSCAASGRTFWSNAMGWYRQAPGKERELVAAISTGAGSTYYADSVKGRFTISRDNAKNTVYLQMNSLKPEDTAVYYCAAVYNGALYTYYYWGQGTQVTVSS	high polyreactivity
QVQLVESGGGLVQAGGSLRLSCAASGRTFWSNAMGWYRQAPGKERELVATISSGGGNTYYADSVKGRFTISRDNAKNTVYLQMNSLKPEDTAVYYCAATKYRWTYAASFGYWGQGTQVTVSS	high polyreactivity
QVQLVESGGGLVQAGGSLRLSCAASGRTFWTKAMGWYRQAPGKEREFVAAISWRGASTFYADSVKGRFTISRDNAKNTVYLQMNSLKPEDTAVYYCAAESYIGKYGSYDYWGQGTQVTVSS	low polyreactivity
QVQLVESGGGLVQAGGSLRLSCAASGRTFWTNAMGWYRQAPGKEREFVAGISQSGGSTYYADSVKGRFTISRDNAKNTVYLQMNSLKPEDTAVYYCATVKAYRRNYYYWGQGTQVTVSS	high polyreactivity
QVQLVESGGGLVQAGGSLRLSCAASGRTFWVNAMGWYRQAPGKERELVAGITFRGGSTYYADSVKGRFTISRDNAKNTVYLQMYSLKPEDTAVYYCAADVTFVYSGRRVHYFYWGQGTQVTVSS	high polyreactivity

Sequence	polyreactivity (PSR sort gate)
QVQLVESGGGLVQAGGSLRLSCAASGRTFWVYAMGWYRQAPGKERELVAAIRRGGITNYADSVKGRFTISRDNAKNTVYLQMNSLKPEDTAVYSCATDNYGYLTRYYYWGQGTQVTVSS	low polyreactivity
QVQLVESGGGLVQAGGSLRLSCAASGRTFWWYGMGWYRQAPGKDRELVAAITNGGSTNYADSVKGRFTISRDIAKNTVYLQMNSLKPEDTAVYYCAARTRSWYGGFYKYYYWGQGTQVTVSS	high polyreactivity
QVQLVESGGGLVQAGGSLRLSCAASGRTFWYNAMGWYRPAPGKERELVAAIRGSGGSTYYADSVKGRFTISRDNAKNTVYLQLNSLKPEDTAVYYCAARGFYRRTYQYENNYWGQGTQVTVSS	high polyreactivity
QVQLVESGGGLVQAGGSLRLSCAASGRTFWYNAMGWYSPAPGKERELLAVITKSGGSTYYADSVKGRFTISRDNAKNTVYLQMNSLKPEDTAVYYCAADTYVARSNYRYRGFDYWGQGTQVTVSS	high polyreactivity
QVQLVESGGGLVQAGGSLRLSCAASGRTFWYYAMGWYRQAPGHERELVAAITGRGGRTYYADSVTGRFTISRDNAKNTVYLQMNSLKPEDTAVYYCAARLPYLGGYDYWGQGTQVTVSS	high polyreactivity
QVQLVESGGGLVQAGGSLRLSCAASGRTFWYYAMGWYRQAPGKERELVAYADSVKGRFTISRDKAKNTVYLQMNSLKPEDTAVYYCAVGPVVWFSSSLYYTEYYYWGQGTQVTVSS	low polyreactivity
QVQLVESGGGLVQAGGSLRLSCAASGRTFWYYDMGWYRQAPGKERELVATINNVGSTHYADSVKGRFTISRDNAKNNVYLQMNSLKPEDTSVYYCARASYGKMDYWGQGTQVTVSS	high polyreactivity
QVQLVESGGGLVQAGGSLRLSCAASGRTFWYYTMGWYREAPGKERELVAAINWSGGSTYYADSVKGRFTISRDNAKNTVYLQMNSLKPEDTAVYYCAARRNGYFSAARDYGGQGTQVTVSS	high polyreactivity
QVQLVESGGGLVQAGGSLRLSCAASGRTFYANAMGWYRQAPGKERELVAAISSRSGTTHYAHSVKGRFTISRDNAKNTVYLQMNSLKPEDTAVYYCAADSCDLYVWGYDHWGQGTQVTVSS	low polyreactivity
QVQLVESGGGLVQAGGSLRLSCAASGRTFYANAMGWYRQAPGKERELVASITTSGGTYYADSVKGRFTISRDNAKNTVYLQMNSLKPEDTAVYYCAADVYRSIGYDYWGQGTQVTVSS	low polyreactivity
QVQLVESGGGLVQAGGSLRLSCAASGRTFYAYAMGWYRQAPGKERELVATISSSDASTYYADSVKGRFTISRDNAKNTVNLQMNSLKPEETAVYYCNADFVRPSWARGRNNGLYYWGQGTQVTVSS	low polyreactivity
QVQLVESGGGLVQAGGSLRLSCAASGRTFYDNAMGWYRQAPGKERELVAAITKSGGRTYYADSVKGRFTISRDFAKNTVYLQMNSLKPEDTAVYYCAASWPNYLYEYWGQGTQVTVSS	high polyreactivity
QVQLVESGGGLVQAGGSLRLSCAASGRTFYDNTMGWYRQAPGKERELVAAISRGGSTYADSVEGRFTISRDNAKNTVYLQMNSLKPEDTAVYYCNKRSITTEYGYWGQGTQVTVSS	low polyreactivity
QVQLVESGGGLVQAGGSLRLSCAASGRTFYDNTMGWYRQAPGKERELVAAITRNGGSTYYADSVKGRFTISRDNAKNTVYLQMNTLKPEDTAVYYCNAELGILSGVAEGPTFREYDYWGQGTQVNVSS	low polyreactivity
QVQLVESGGGLVQAGGSLRLSCAASGRTFYDYAMGWYRQAPGKERELVASIRGSDGSTYYADSVKGRFTISRDNAKNTVYLQMNSLKPEDTEVYYCAARGFYGTNGRVYITSYYYWGQGTQVTVSS	high polyreactivity
QVQLVESGGGLVQAGGSLRLSCAASGRTFYDYTMGWYRQAPGKERELVAAISQRGGSTYYADSVKGRFTISRDNAKNTVYLQMNSLKPEDTAVYYCAARTSYSGNKYYYWGQGTQVTVSS	high polyreactivity
QVQLVESGGGLVQAGGSLRLSCAASGRTFYEYAMGWYRQAPGKERELVAAITIDGSTNYADSVKGRFTISRDNAKNTVYLQMNSLKPEDTAVYYCNARYLLYHGQHYRPYNYWGQGTQVTVSS	high polyreactivity
QVQLVESGGGLVQAGGSLRLSCAASGRTFYEYTMGWYRQAPGKERELVAAITWSVGSTYYADSVKGRFTISRDNAKNTVYLQMNSLKPEDTAVYYCAAYYYVWYYYWGQGTQVTVSS	low polyreactivity
QVQLVESGGGLVQAGGSLRLSCAASGRTFYFNAMRWYRQAPGKERELVAGISGDGSTNYADSVKGRFTISRDNAKNTVYLQMNSLKPEDTAVYYCAARIRPGYRTWYYSWGQGTQVTVSS	low polyreactivity
QVQLVESGGGLVQAGGSLRLSCAASGRTFYFNSMGWYRQAPGKERELVASISYGSNTNYADSVKGRFTISRDNAKNTVYLQMNSLKPEDTAVYYCAVRWVYRTYSWGARYGRYDYWGQGTQVTVSS	high polyreactivity
QVQLVESGGGLVQAGGSLRLSCAASGRTFYFNTMGWYRQAPGKERELVATISWSGGRTYYADSVKGRFTISRDNAKNTVYLQMNSLKPEDTAVYYCAAVRYRGFDYWGQGTQVTVSS	high polyreactivity
